Assay results from article PMC4318453.

Columns and labels:
heat shock protein 40 = heat shock protein 40 (UniProt P25685); experiment: FRET or BRET; positive control of the FRET experiment, results not shown
[1] = molecular target: Proliferating cell nuclear antigen, purified recombinant (UniProt P12004)

Sequence of UniProt P25685 (P25685 whole entry): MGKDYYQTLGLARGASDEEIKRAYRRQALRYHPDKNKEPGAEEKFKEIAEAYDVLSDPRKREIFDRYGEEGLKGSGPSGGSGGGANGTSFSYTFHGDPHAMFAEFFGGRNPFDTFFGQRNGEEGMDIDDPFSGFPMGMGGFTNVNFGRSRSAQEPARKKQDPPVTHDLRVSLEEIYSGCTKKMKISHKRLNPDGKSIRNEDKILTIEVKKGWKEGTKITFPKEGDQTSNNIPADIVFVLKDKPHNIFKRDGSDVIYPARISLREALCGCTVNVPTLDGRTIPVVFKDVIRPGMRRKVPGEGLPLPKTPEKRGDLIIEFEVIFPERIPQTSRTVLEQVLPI

Molecule	FRET efficiency (heat shock protein 40)	PCNA:pol δ-mediated in vitro DNA synthesis (polydA/oligodT, [3H]dTTP incorporation) with increasing amounts of agnoprotein [1]
mitogen-activated protein kinase MK5 (from UniProt Q8IW41 1-473) (enzyme)	15%	
BKPyV agnoprotein, purified full-length (natural protein) MVLRQLSRQASVKVGKTWTGTKKRAQRIFIFILELLLEFCRGEDSVDGKNKSTTALPAVKDSVKDS		50%
